Source: US20230340087A1

Target: Clostridium difficile toxin A (TcdA) (Clostridium difficile) (UniProt P16154)
Test: cell-based or functional assay

Chain of Clostridium difficile toxin A (TcdA) (Clostridium difficile) (P16154 whole entry): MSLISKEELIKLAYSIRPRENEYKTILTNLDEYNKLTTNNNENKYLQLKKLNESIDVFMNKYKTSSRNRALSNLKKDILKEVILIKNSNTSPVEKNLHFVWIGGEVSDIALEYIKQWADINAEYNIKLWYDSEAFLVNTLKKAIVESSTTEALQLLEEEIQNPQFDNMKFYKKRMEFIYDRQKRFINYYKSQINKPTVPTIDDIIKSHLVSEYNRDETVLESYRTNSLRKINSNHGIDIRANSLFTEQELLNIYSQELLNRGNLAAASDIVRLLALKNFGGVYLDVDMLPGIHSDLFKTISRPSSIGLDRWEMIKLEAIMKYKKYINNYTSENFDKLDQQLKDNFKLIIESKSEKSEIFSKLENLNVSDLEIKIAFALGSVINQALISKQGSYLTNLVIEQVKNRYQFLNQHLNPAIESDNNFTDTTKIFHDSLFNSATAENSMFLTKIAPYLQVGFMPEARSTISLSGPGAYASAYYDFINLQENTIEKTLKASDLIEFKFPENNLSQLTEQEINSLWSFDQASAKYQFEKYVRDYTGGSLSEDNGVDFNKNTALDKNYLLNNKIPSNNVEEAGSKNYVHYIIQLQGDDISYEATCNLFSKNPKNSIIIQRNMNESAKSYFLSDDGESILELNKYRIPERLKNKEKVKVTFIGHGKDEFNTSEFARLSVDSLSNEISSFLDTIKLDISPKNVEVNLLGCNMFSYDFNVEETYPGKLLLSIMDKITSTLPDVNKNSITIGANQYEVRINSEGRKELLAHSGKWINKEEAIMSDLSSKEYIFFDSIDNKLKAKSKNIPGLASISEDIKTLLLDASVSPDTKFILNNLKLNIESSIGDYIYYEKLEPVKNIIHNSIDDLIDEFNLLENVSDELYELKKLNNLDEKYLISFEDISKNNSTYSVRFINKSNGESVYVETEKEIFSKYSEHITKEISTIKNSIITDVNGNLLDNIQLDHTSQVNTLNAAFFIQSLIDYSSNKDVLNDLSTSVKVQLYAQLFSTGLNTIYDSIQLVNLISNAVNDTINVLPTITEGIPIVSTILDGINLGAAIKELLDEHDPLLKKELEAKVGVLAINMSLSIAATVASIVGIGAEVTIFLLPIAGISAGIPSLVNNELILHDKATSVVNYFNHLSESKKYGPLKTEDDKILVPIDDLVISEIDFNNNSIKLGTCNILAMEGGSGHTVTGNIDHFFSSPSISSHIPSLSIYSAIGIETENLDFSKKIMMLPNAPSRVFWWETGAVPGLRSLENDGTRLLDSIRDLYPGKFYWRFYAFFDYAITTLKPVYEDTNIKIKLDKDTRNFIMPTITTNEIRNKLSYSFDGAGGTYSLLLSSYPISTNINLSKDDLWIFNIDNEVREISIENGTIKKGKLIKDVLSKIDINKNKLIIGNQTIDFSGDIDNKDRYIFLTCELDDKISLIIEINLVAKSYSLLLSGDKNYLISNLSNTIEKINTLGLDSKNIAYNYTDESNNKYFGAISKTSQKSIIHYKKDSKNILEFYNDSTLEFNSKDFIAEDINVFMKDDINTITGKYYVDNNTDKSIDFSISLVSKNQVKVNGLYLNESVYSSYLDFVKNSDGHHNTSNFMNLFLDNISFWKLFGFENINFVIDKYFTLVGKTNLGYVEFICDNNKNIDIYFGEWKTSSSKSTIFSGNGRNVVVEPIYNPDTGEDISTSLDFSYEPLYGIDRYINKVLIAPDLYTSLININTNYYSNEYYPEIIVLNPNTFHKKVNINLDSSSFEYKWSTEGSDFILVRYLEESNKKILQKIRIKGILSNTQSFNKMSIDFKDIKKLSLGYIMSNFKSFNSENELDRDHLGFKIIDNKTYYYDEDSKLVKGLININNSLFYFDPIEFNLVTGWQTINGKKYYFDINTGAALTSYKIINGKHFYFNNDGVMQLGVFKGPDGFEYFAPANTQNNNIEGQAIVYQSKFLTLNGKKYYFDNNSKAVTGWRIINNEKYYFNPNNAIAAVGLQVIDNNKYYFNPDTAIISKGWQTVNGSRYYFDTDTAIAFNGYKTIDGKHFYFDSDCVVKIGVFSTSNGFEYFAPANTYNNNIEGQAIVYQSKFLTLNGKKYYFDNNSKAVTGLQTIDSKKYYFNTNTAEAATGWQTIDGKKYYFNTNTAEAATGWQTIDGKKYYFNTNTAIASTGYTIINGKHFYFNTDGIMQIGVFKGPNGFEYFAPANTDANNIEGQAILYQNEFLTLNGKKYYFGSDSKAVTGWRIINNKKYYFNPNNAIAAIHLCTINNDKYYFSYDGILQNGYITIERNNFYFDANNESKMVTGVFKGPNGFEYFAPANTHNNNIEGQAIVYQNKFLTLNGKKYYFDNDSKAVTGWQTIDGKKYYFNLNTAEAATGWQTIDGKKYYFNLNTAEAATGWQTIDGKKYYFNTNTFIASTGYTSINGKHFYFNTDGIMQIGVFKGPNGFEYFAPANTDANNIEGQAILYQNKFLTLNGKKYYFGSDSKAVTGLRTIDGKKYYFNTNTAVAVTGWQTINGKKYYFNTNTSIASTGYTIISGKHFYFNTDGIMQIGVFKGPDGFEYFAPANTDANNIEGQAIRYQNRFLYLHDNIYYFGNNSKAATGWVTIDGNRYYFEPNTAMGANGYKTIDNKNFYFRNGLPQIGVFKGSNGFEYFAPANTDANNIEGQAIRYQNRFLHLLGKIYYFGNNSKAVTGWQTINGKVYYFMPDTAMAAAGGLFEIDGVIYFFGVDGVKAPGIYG

## Merck anti-TcdA human monoclonal antibody (actoxumab)
  minimal dose of antibody protecting Vero cells from TcdA-induced cell rounding: > 10 nM
